Target: T1, BMC15 (uncultured bacterium (metagenome))
T1 chain: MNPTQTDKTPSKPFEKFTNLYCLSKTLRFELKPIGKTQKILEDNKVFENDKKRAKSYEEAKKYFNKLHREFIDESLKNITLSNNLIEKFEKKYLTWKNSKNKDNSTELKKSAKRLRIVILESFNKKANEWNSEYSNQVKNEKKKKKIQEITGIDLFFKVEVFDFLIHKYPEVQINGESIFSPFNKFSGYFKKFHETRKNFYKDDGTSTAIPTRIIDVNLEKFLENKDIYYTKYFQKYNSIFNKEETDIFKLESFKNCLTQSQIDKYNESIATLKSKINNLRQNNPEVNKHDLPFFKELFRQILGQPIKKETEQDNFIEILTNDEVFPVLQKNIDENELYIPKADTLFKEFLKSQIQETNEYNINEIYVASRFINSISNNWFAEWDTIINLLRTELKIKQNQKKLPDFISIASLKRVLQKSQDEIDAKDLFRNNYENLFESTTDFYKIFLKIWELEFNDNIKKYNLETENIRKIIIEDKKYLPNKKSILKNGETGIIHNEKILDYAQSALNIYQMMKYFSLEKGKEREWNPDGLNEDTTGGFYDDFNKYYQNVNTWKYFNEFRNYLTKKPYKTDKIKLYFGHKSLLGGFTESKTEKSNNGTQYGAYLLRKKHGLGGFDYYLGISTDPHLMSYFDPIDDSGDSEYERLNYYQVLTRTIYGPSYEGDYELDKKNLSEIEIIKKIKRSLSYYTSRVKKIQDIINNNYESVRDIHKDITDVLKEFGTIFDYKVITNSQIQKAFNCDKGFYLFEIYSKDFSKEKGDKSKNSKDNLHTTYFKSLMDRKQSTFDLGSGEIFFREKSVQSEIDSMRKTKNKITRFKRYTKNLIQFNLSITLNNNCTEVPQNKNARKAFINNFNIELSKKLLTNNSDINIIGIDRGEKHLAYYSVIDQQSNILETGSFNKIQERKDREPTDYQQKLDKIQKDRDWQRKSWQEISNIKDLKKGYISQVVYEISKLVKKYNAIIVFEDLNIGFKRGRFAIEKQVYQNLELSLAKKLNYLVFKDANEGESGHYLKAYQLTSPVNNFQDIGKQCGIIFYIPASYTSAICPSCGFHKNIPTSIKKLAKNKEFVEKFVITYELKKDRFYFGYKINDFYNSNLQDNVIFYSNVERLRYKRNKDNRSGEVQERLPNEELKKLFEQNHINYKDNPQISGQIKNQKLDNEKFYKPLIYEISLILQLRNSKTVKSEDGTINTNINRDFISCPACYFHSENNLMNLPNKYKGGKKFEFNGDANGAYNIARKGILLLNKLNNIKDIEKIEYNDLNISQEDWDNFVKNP
Experiment: cell_activity; PAM not stated; E. coli depletion, 30 C
Method in brief: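 E. coli carrying arabinose-induced (0.2%) BMC nuclease, grown at 30° C., made electrocompetent and electroporated with 50-100 ng plasmid carrying gRNA against malQ. Transformants plated on selective M9-glucose agar with kanamycin/ampicillin (± nourseothricin), and growth scored after 48 h at 30° C.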

B1: malQ gRNA (BMC stem-loop + 24 nt spacer) ; malQ protospacer (ssRNA ; dsDNA)
RNA: GAUUUCUACUAUUGUAGAUGUGGCGGUACGUUGAUGCAUCGCG
DNA 1: GTGGCGGTACGTTGATGCATCGCG
DNA 2: CGCGATGCATCAACGTACCGCCAC
Question: For B1, which activity is on record?
Answer: > 99.9 % colony reduction

— US20250277199, “NOVEL CRISPR-CAS NUCLEASES FROM METAGENOMES” (Brain Biotech AG, published 2025)
